± gives the uncertainty stated by the source.
B1: Heterogeneous nuclear ribonucleoprotein U-like protein 2, residues 1 to 40; numbered along this chain, Q1KMD3 (parent)
chain: MEVKRLKVTELRSELQRRGLDSRGLKVDLAQRLQEALDAE
B2: Membrane-associated guanylate kinase, WW and PDZ domain-containing protein 3, residues 287 to 329; numbered along this chain, Q5TCQ9 (parent)
chain: MRDETLEPLPKNWEMAYTDTGMIYFIDHNTKTTTWLDPRLCKK

Variants of: B1
Test: abundance fitness (aPCA) (normalised: wild type 0, dead -1); higher = more abundant; growth selection in yeast, the domain comes from the species named
Settings: Homo sapiens

| Variant | abundance fitness |
| --- | --- |
| E40L | -0.849 ± 0.082 |
| E40N | -0.253 ± 0.17 |
| E40P | -0.543 ± 0.28 |
| E40R | -0.381 ± 0.056 |
| E40S | -0.311 ± 0.063 |
| E40T | -0.405 ± 0.22 |
| E40V | -0.529 ± 0.084 |
| E40W | -1.14 ± 0.087 |
| E40Y | -0.518 ± 0.22 |

Variants of: B2
Test: as above
Settings: Homo sapiens

| Variant | abundance fitness |
| --- | --- |
| M1D | -0.026 ± 0.061 |
| M1E | 0.001 ± 0.038 |
| M1G | -0.057 ± 0.032 |
| M1I | -0.152 ± 0.27 |
| M1K | 0.025 ± 0.047 |
| M1L | -0.074 ± 0.042 |
| M1N | -0.213 ± 0.13 |
| M1Q | -0.253 ± 0.12 |
| M1R | -0.056 ± 0.035 |
| M1S | -0.064 ± 0.096 |
| M1T | -0.06 ± 0.039 |
| M1V | -0.089 ± 0.038 |
| M1Y | -0.1 ± 0.11 |
| R2A | -0.088 ± 0.039 |
| R2C | -0.046 ± 0.048 |
| R2E | -0.05 ± 0.038 |
| R2F | -0.171 ± 0.049 |
| R2G | -0.054 ± 0.043 |
| R2I | -0.122 ± 0.055 |
| R2K | -0.045 ± 0.073 |
| R2L | -0.072 ± 0.054 |
| R2M | -0.015 ± 0.077 |
| R2N | -0.021 ± 0.046 |

| Variant | abundance fitness |
| --- | --- |
| R2S | -0.164 ± 0.044 |
| R2T | -0.002 ± 0.033 |
| R2V | -0.091 ± 0.033 |
| R2W | -0.226 ± 0.038 |
| D3A | -0.089 ± 0.034 |
| D3C | -0.164 ± 0.093 |
| D3E | -0.039 ± 0.036 |
| D3F | -0.161 ± 0.065 |
| D3G | -0.065 ± 0.036 |
| D3I | -0.213 ± 0.1 |
| D3K | -0.046 ± 0.051 |
| D3L | -0.175 ± 0.043 |
| D3M | -0.188 ± 0.035 |
| D3N | -0.148 ± 0.067 |
| D3P | -0.072 ± 0.053 |
| D3Q | -0.074 ± 0.044 |
| D3R | -0.127 ± 0.032 |
| D3S | -0.067 ± 0.036 |
| D3T | -0.12 ± 0.042 |
| D3W | -0.336 ± 0.039 |
| D3Y | -0.367 ± 0.12 |
| E4A | -0.09 ± 0.038 |
| E4C | -0.062 ± 0.038 |

| Variant | abundance fitness |
| --- | --- |
| E4D | -0.115 ± 0.055 |
| E4F | -0.097 ± 0.068 |
| E4G | -0.113 ± 0.03 |
| E4H | -0.174 ± 0.063 |
| E4K | -0.107 ± 0.065 |
| E4L | -0.09 ± 0.04 |
| E4M | -0.11 ± 0.043 |
| E4P | -0.095 ± 0.045 |
| E4Q | -0.04 ± 0.035 |
| E4R | -0.091 ± 0.03 |
| E4S | -0.043 ± 0.045 |
| E4W | -0.515 ± 0.057 |
| E4Y | -0.319 ± 0.11 |
| T5A | -0.04 ± 0.042 |
| T5C | -0.123 ± 0.09 |
| T5D | -0.02 ± 0.054 |
| T5E | -0.046 ± 0.037 |
| T5F | -0.384 ± 0.16 |
| T5G | -0.05 ± 0.028 |
| T5H | -0.059 ± 0.054 |
| T5K | 0.072 ± 0.057 |
| T5M | 0.251 ± 0.14 |
| T5N | 0.125 ± 0.2 |

| Variant | abundance fitness |
| --- | --- |
| T5P | -0.023 ± 0.036 |
| T5Q | 0.012 ± 0.058 |
| T5R | -0.064 ± 0.036 |
| T5V | -0.064 ± 0.033 |
| T5W | -0.303 ± 0.062 |
| T5Y | -0.19 ± 0.056 |
| L6A | 0.016 ± 0.036 |
| L6D | -0.086 ± 0.061 |
| L6E | -0.029 ± 0.053 |
| L6F | -0.13 ± 0.19 |
| L6G | 0.001 ± 0.032 |
| L6H | -0.249 ± 0.07 |
| L6I | 0.141 ± 0.22 |
| L6K | -0.128 ± 0.13 |
| L6M | -0.067 ± 0.069 |
| L6P | -0.068 ± 0.039 |
| L6Q | 0.103 ± 0.071 |
| L6R | -0.026 ± 0.032 |
| L6S | 0.034 ± 0.034 |
| L6T | -0.018 ± 0.044 |
| L6V | -0.024 ± 0.031 |
| L6W | -0.108 ± 0.039 |
| L6Y | -0.156 ± 0.052 |

| Variant | abundance fitness |
| --- | --- |
| E7A | -0.076 ± 0.038 |
| E7C | -0.324 ± 0.067 |
| E7D | -0.113 ± 0.078 |
| E7F | -0.327 ± 0.045 |
| E7G | 0.013 ± 0.032 |
| E7I | -0.218 ± 0.054 |
| E7K | -0.101 ± 0.045 |
| E7L | -0.115 ± 0.035 |
| E7M | -0.145 ± 0.038 |
| E7N | -0.238 ± 0.069 |
| E7P | 0.014 ± 0.049 |
| E7Q | -0.04 ± 0.041 |
| E7R | -0.084 ± 0.033 |
| E7S | -0.049 ± 0.044 |
| E7V | -0.09 ± 0.04 |
| E7W | -0.24 ± 0.044 |
| P8A | -0.065 ± 0.034 |
| P8C | -0.332 ± 0.24 |
| P8D | -0.087 ± 0.05 |
| P8E | -0.078 ± 0.076 |
| P8G | -0.13 ± 0.03 |
| P8K | -0.069 ± 0.041 |
| P8M | -0.255 ± 0.056 |

| Variant | abundance fitness |
| --- | --- |
| P8Q | -0.15 ± 0.053 |
| P8R | -0.112 ± 0.031 |
| P8S | -0.325 ± 0.11 |
| P8T | -0.162 ± 0.061 |
| P8V | -0.187 ± 0.035 |
| P8W | -0.367 ± 0.042 |
| P8Y | -0.395 ± 0.13 |
| L9A | -0.691 ± 0.095 |
| L9C | -0.721 ± 0.23 |
| L9E | -0.566 ± 0.052 |
| L9G | -0.681 ± 0.034 |
| L9K | -0.683 ± 0.087 |
| L9M | -0.106 ± 0.054 |
| L9Q | -0.566 ± 0.057 |
| L9R | -0.639 ± 0.058 |
| L9S | -0.621 ± 0.045 |
| L9V | -0.337 ± 0.036 |
| L9W | -0.492 ± 0.073 |
| P10A | -0.392 ± 0.038 |
| P10C | -0.54 ± 0.11 |
| P10D | -0.527 ± 0.13 |
| P10E | -0.456 ± 0.057 |
| P10F | -0.831 ± 0.071 |

| Variant | abundance fitness |
| --- | --- |
| P10H | -0.677 ± 0.087 |
| P10I | -0.854 ± 0.12 |
| P10L | -0.613 ± 0.046 |
| P10Q | -0.505 ± 0.048 |
| P10R | -0.685 ± 0.034 |
| P10S | -0.496 ± 0.037 |
| P10T | -0.462 ± 0.053 |
| P10V | -0.816 ± 0.089 |
| P10W | -0.837 ± 0.058 |
| K11A | -0.033 ± 0.039 |
| K11C | -0.137 ± 0.039 |
| K11D | -0.092 ± 0.086 |
| K11E | 0.024 ± 0.033 |
| K11F | -0.21 ± 0.11 |
| K11H | -0.08 ± 0.037 |
| K11I | -0.271 ± 0.069 |
| K11L | -0.08 ± 0.038 |
| K11M | -0.161 ± 0.045 |
| K11N | -0.118 ± 0.093 |
| K11P | 0.007 ± 0.049 |

Source: the Human Domainome abundance scans (Beltran et al. 2025)
